Test results: patent US20260216058A1, “TRACE ELEMENT COMPOSITION, PREPARATION METHOD THEREFOR, AND USE THEREOF” (BEIJING ZANGWEIXINKANG PHARMACEUTICAL R&D CO., LTD., priority 2023, published 2026)

System: Hartley guinea pigs
Test: Systemic active allergic reaction test in guinea pigs
Assay type: in vivo, guinea pig
Details: 40 mg/mL
Text: Systemic active allergic reaction test in guinea pigs: Hartley guinea pigs, SPF grade, source: Beijing Vital River Laboratory Animal Technology Co., Ltd., animal production license No.: SCXK (JING) 2016-0011, test animal certification No.: No. 110011201110221326, issuer: Beijing Science and Technology Commission, age at the start of administration: 5-6 weeks.
Guinea pigs were sensitized by intraperitoneal injection of the sample of Example 2 and Addaven every other day for three consecutive days. In the allergic reaction test, 0.9% sodium chloride injection (Lot No.: 6B20060706, Shandong Qidu Pharmaceutical Co., Ltd.) was selected as the compatibility solution. Test sample low-dose group was administered with the clinically intended concentration of the test sample solution, and test sample high-dose group was administered with twice the concentration of the test sample solution. The administration volume was 0.5 mL/animal for each group. On the 14th and 21st days after the last sensitization, twice the sensitization dose of the product was intravenously injected for irritation, respectively.
Negative control group: 0.9% sodium chloride injection; […]

bovine serum albumin
allergic reactions (irritation on the 14th day after the last sensitization): strongly positive to extremely strong positive
allergic reactions (irritation on the 21st day after the last sensitization): strongly positive to extremely strong positive
